Test results published in US20130344073.

Key:
ST-pro-factor D-His = ST-pro-factor D-His (UniProt P00746)
pro-factor D-His = pro-factor D-His (UniProt P00746)

Sequence of full length wild type recombinant human MASP-3 (chain): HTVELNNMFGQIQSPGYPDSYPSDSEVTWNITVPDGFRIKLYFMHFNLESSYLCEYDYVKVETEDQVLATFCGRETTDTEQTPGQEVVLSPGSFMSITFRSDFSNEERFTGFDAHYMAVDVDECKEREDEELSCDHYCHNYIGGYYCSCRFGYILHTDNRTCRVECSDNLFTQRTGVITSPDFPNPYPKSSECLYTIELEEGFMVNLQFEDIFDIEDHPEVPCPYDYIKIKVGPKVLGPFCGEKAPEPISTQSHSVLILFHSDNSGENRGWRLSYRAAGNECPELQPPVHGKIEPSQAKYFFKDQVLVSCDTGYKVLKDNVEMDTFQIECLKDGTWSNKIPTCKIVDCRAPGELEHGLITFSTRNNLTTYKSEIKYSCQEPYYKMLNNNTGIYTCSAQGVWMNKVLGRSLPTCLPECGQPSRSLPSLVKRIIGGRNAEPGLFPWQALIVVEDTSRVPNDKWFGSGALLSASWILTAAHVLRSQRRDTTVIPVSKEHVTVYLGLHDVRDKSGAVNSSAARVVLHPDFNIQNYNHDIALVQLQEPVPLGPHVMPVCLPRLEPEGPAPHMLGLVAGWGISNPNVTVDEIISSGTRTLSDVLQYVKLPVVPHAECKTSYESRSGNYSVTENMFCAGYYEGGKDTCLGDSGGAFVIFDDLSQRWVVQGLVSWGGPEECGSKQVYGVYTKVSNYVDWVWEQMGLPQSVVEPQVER

full length wild type recombinant human MASP-3
cleavage of pro-factor D (Western blot) (ST-pro-factor D-His): only full length MASP-3 (lane 2) and the MASP-1 CCP1-CCP2-SP) fragment (lane 5) cleaved ST-pro-factor D-His6 | cleavage of pro-factor D (Western blot) (pro-factor D-His): Identical results were obtained with the pro-factor D-His6 polypeptide (not shown)

catalytically-inactive full length MASP-3 (S679A)
cleavage of pro-factor D (Western blot) (ST-pro-factor D-His): The catalytically-inactive full length MASP-3 (S679A; lane 3) and MASP-1 (S646A; lane 3) failed to cleave either substrate | cleavage of pro-factor D (Western blot) (pro-factor D-His): The catalytically-inactive full length MASP-3 (S679A; lane 3) and MASP-1 (S646A; lane 3) failed to cleave either substrate
